Assay results: publication PMC2962900, “Kinetics of Methylation by EcoP1I DNA Methyltransferase” (Enzyme Research, 2010)

What was measured:
[1] = substrate: C[S+](CC[C@H](N)C(=O)O)C[C@H]1O[C@@H](n2cnc3c(N)ncnc32)[C@H](O)[C@@H]1O; assay: purified protein; settings: Mg2+; DNA 1 μM (which DNA not stated); enzyme 400 nM; AdoMet 50 nM-2 μM; 30 min; labelled compound
[2] = target: the molecule itself; assay: SEC; Superose 6 HR 10/30, buffer B (10 mM Tris-HCl pH 7.4, 100 mM NaCl, 0.1 mM EDTA, 10% glycerol, 7 mM beta-mercaptoethanol), 0.2 mL/min; 3-15 uM M.EcoP1I loaded; column calibrated with marker proteins

Protein | Km [1] | stoichiometry N [2]
EcoP1I DNA methyltransferase (M.EcoP1I) (Escherichia phage P1) (protein) MKKETIFSEVETANSKQLAVLKANFPQCFDKNGAFIQEKLLEIIRASEVELSKESYSLNWLGKSYARLLANLPPKTLLAEDKTHNQQEENKNSQNLLIKGDNLEVLKHMVNAYAEKVNMIYIDPPYNTGKDGFVYNDDRKFTPEQLSELAGIELDEANRILEFTTKGSSSHSAWLTFIYPRLYIARELLKEDGVIFISIDDNEDKQLGLLCDEVFGQGNFVAKLPTIMNLKGNHDNFGFSDTHEYIYVYAKNKDVCSLGQFDIDESEVEKEWDEDEYGLFKRADTLKRTGQDASRKSRPKGWFPVFINSENKVYVTDDDKPLNEDDYVLYPVSPTGEELSWSWGKKKINDEFYNLIVIDIKDGKNIYKKQRPALGELPTKKPKSIWYKPEYSTSTATTELKNLLGAKLFEGPKPVPLITDLVKIGTKKDSLVLDFFAGSGTTAEAVAYLNEKDSGCRNFICIQKDEVINKTKNAYSLGYRSIFEITKKRIQEVFKKSTTTSDNAAKIGFKVIHTIDDFRAKVESELTLTNHTFFDDAVLTPEQYDALLTTWCVYDGSLLTTPIEDVDLSGYTAHFCNGRLYLIAPNFTSEALKALLQKLDSDEDFAPNKVVFYGCNFESAKQRELNEALKSYANKKSIELDLVVRN | 0.5 µM | –
EcoP1I DNA methyltransferase (M.EcoP1I) (enzyme, bacteriophage P1, UniProt P08763 1-646, looked up, EcoP1I DNA methyltransferase, product of the mod gene of the EcoP1I Type III restriction-modification system of bacteriophage (prophage) P1; 1948 bp gene amplified with primers from the 5' and 3' ends of the open reading frame, cloned in the BamHI site of pET15b (construct pSN2); calculated mass ~75 kDa; No removal of the His6 tag is described. pET15b adds linker residues between the tag and the …) MKKETIFSEVETANSKQLAVLKANFPQCFDKNGAFIQEKLLEIIRASEVELSKESYSLNWLGKSYARLLANLPPKTLLAEDKTHNQQEENKNSQNLLIKGDNLEVLKHMVNAYAEKVNMIYIDPPYNTGKDGFVYNDDRKFTPEQLSELAGIELDEANRILEFTTKGSSSHSAWLTFIYPRLYIARELLKEDGVIFISIDDNEDKQLGLLCDEVFGQGNFVAKLPTIMNLKGNHDNFGFSDTHEYIYVYAKNKDVCSLGQFDIDESEVEKEWDEDEYGLFKRADTLKRTGQDASRKSRPKGWFPVFINSENKVYVTDDDKPLNEDDYVLYPVSPTGEELSWSWGKKKINDEFYNLIVIDIKDGKNIYKKQRPALGELPTKKPKSIWYKPEYSTSTATTELKNLLGAKLFEGPKPVPLITDLVKIGTKKDSLVLDFFAGSGTTAEAVAYLNEKDSGCRNFICIQKDEVINKTKNAYSLGYRSIFEITKKRIQEVFKKSTTTSDNAAKIGFKVIHTIDDFRAKVESELTLTNHTFFDDAVLTPEQYDALLTTWCVYDGSLLTTPIEDVDLSGYTAHFCNGRLYLIAPNFTSEALKALLQKLDSDEDFAPNKVVFYGCNFESAKQRELNEALKSYANKKSIELDLVVRN | – | 2
